According to the supplement of paper PMC9112550, “Optimization of the antimicrobial peptide Bac7 by deep mutational scanning” (BMC Biology, 2022):

Test system: Escherichia coli TOP10
Experiment: shrunken log2 fold change of peptide-encoding DNA abundance (4.5 h post-induction vs induction); higher = less antimicrobial activity (less host growth inhibition)
Settings: time post-induction: 4.5 h; library: site-saturation at positions 5, 18, 19, 20
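Note: peptides expressed intracellularly from a pBAD plasmid library in pooled LB shake-flask culture, induced with 0.3% L-arabinose, DNA abundance read by NGS, three biological replicates, DESeq2 with apeglm shrinkage.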

| Sequence | shrunken log2 fold change |
| --- | --- |
| RRIRGRPPRLPRPRPRPSWTPRP | 0.219 |
| RRIRGRPPRLPRPRPRPSYAPRP | 0.316 |
| RRIRGRPPRLPRPRPRPSYRPRP | -0.144 |
| RRIRGRPPRLPRPRPRPTCLPRP | 0.576 |
| RRIRGRPPRLPRPRPRPTCWPRP | 0.764 |
| RRIRGRPPRLPRPRPRPTEQPRP | 0.883 |
| RRIRGRPPRLPRPRPRPTETPRP | 0.559 |
| RRIRGRPPRLPRPRPRPTFDPRP | 0.548 |
| RRIRGRPPRLPRPRPRPTFEPRP | 0.923 |
| RRIRGRPPRLPRPRPRPTGGPRP | 0.887 |
| RRIRGRPPRLPRPRPRPTHEPRP | 1.34 |
| RRIRGRPPRLPRPRPRPTHFPRP | 0.71 |
| RRIRGRPPRLPRPRPRPTIFPRP | 0.127 |
| RRIRGRPPRLPRPRPRPTNKPRP | 0.242 |
| RRIRGRPPRLPRPRPRPTNMPRP | 0.316 |
| RRIRGRPPRLPRPRPRPTNRPRP | 0.258 |
| RRIRGRPPRLPRPRPRPTRGPRP | 0.808 |
| RRIRGRPPRLPRPRPRPTRTPRP | 1.32 |
| RRIRGRPPRLPRPRPRPTSQPRP | 0.87 |
| RRIRGRPPRLPRPRPRPTTDPRP | 0.918 |
| RRIRGRPPRLPRPRPRPTTTPRP | 1.07 |
| RRIRGRPPRLPRPRPRPTVAPRP | 1.99 |
| RRIRGRPPRLPRPRPRPTWTPRP | 1.18 |
| RRIRGRPPRLPRPRPRPTWVPRP | 0.493 |
| RRIRGRPPRLPRPRPRPTYFPRP | 0.0176 |

| Sequence | shrunken log2 fold change |
| --- | --- |
| RRIRGRPPRLPRPRPRPTYHPRP | 0.0704 |
| RRIRGRPPRLPRPRPRPTYWPRP | 0.186 |
| RRIRGRPPRLPRPRPRPVAKPRP | 0.961 |
| RRIRGRPPRLPRPRPRPVCFPRP | 0.997 |
| RRIRGRPPRLPRPRPRPVEWPRP | 0.0602 |
| RRIRGRPPRLPRPRPRPVFCPRP | 0.206 |
| RRIRGRPPRLPRPRPRPVHAPRP | 0.743 |
| RRIRGRPPRLPRPRPRPVIYPRP | 0.0164 |
| RRIRGRPPRLPRPRPRPVKCPRP | -0.118 |
| RRIRGRPPRLPRPRPRPVKMPRP | 0.127 |
| RRIRGRPPRLPRPRPRPVMIPRP | 0.157 |
| RRIRGRPPRLPRPRPRPVMPPRP | 0.16 |
| RRIRGRPPRLPRPRPRPVNDPRP | 0.368 |
| RRIRGRPPRLPRPRPRPVNFPRP | 0.44 |
| RRIRGRPPRLPRPRPRPVNHPRP | 0.301 |
| RRIRGRPPRLPRPRPRPVPQPRP | 0.618 |
| RRIRGRPPRLPRPRPRPVRTPRP | 1.3 |
| RRIRGRPPRLPRPRPRPVRYPRP | 0.428 |
| RRIRGRPPRLPRPRPRPVSVPRP | 0.624 |
| RRIRGRPPRLPRPRPRPVSYPRP | 0.291 |
| RRIRGRPPRLPRPRPRPVTMPRP | 0.396 |
| RRIRGRPPRLPRPRPRPVTVPRP | 0.0499 |
| RRIRGRPPRLPRPRPRPVVDPRP | 0.873 |
| RRIRGRPPRLPRPRPRPVWIPRP | 0.276 |
| RRIRGRPPRLPRPRPRPVWMPRP | -0.117 |

| Sequence | shrunken log2 fold change |
| --- | --- |
| RRIRGRPPRLPRPRPRPWCDPRP | 0.0715 |
| RRIRGRPPRLPRPRPRPWDLPRP | -0.0503 |
| RRIRGRPPRLPRPRPRPWDTPRP | 0.194 |
| RRIRGRPPRLPRPRPRPWFCPRP | -0.444 |
| RRIRGRPPRLPRPRPRPWFRPRP | -0.0346 |
| RRIRGRPPRLPRPRPRPWGCPRP | 0.702 |
| RRIRGRPPRLPRPRPRPWGFPRP | -0.126 |
| RRIRGRPPRLPRPRPRPWGPPRP | 0.427 |
| RRIRGRPPRLPRPRPRPWGYPRP | 0.094 |
| RRIRGRPPRLPRPRPRPWHRPRP | 0.0496 |
| RRIRGRPPRLPRPRPRPWKPPRP | 0.0444 |
| RRIRGRPPRLPRPRPRPWLNPRP | -0.00435 |
| RRIRGRPPRLPRPRPRPWLQPRP | 0.201 |
| RRIRGRPPRLPRPRPRPWMEPRP | 0.563 |
| RRIRGRPPRLPRPRPRPWNLPRP | 0.000264 |
| RRIRGRPPRLPRPRPRPWPIPRP | -0.095 |
| RRIRGRPPRLPRPRPRPWPLPRP | 0.797 |
| RRIRGRPPRLPRPRPRPWPNPRP | -0.0526 |
| RRIRGRPPRLPRPRPRPWQLPRP | 0.372 |
| RRIRGRPPRLPRPRPRPWRDPRP | 0.0475 |
| RRIRGRPPRLPRPRPRPWSNPRP | -0.116 |
| RRIRGRPPRLPRPRPRPWVEPRP | 0.129 |
| RRIRGRPPRLPRPRPRPWYIPRP | -0.291 |
| RRIRGRPPRLPRPRPRPWYVPRP | -2.24 |
| RRIRGRPPRLPRPRPRPYAFPRP | 0.413 |
